Assay results reported in article PMC11694511.

What was measured:
[1] = molecular target: LolA from Porphyromonas gingivalis (P. gingivalis); assay: ITC
[2] = molecular target: LolA from Vibrio cholerae (V. cholerae) (UniProt A5F2G9); assay: ITC

| Substance | Kd [1] [µM] | Kd [2] [µM] |
| --- | --- | --- |
| colistin (peptide) | 33 | 91 |
| polymyxin B (peptide) |  | 56 |
